# Assay results from patent US11708423B2, “Chimeric engulfment receptor molecules and methods of use” (CERO THERAPEUTICS, INC., priority 2017, dated 2023).
# B1: CER31−HPV16 E7 TCR: tandem expression cassette: CER31, T2A peptide, HPV16 E7 specific TCR; SEQ ID NO:170 (protein)
# chain: MSKGLLLLWLVTELWWLYLTPAASEDTIIGFLGQPVTLPCHYLSWSQSRNSMCWGKGSCPNSKCNAELLRTDGTRIISRKSTKYTLLGKVQFGEVSLTISNTNRGDSGVYCCRIEVPGWFNDVKKNVRLELRRATTTKKPTTTTRPTTTPYVTTTTPELLPTTVMTTSVLPTTTPPQTLATTAFSTAVTTCPSTTPGSFSQETTKGSAFTTESETLPASNHSQRSMMTISTDIAVLRPTGSNPGILPSTSQLTTQKTTLTTSESLQKTTKSHQINSRQTILIIACCVGFVLMVLLFLAFLMESSKKMDSPGALQTNPPLKLHTDRSAGTPVFVPEQGGYKEKFVKTVEDKYKCEKCHLVLCSPKQTECGHRFCESCMAALLSSSSPKCTACQESIVKDKVFKDNCCKREILALQIYCRNESRGCAEQLMLGHLLVHLKNDCHFEELPCVRPDCKEKVLRKDLRDHVEKACKYREATCSHCKSQVPMIALQKHEDTDCPCVVVSCPHKCSVQTLLRSELSAHLSECVNAPSTCSFKRYGCVFQGTNQQIKAHEASSAVQHVNLLKEWSNSLEKKVLEGGGEGRGSLLTCGDVEENPGPMAPGLLCWALLCLLGAGLVDAGVTQSPTHLIKTRGQQVTLRCSPKSGHDTVSWYQQALGQGPQFIFQYYEEEERQRGNFPDRFSGHQFPNYSSELNVNALLLGDSALYLCASSLGWRGGRYNEQFFGPGTRLTVLEDLRNVTPPKVSLFEPSKAEIANKQKATLVCLARGFFPDHVELSWWVNGKEVHSGVCTDPQAYKESNYSYCLSSRLRVSATFWHNPRNHFRCQVQFHGLSEEDKWPEGSPKPVTQNISAEAWGRADCGITSASYQQGVLSATILYEILLGKATLYAVLVSTLVVMAMVKRKNSRAKRSGSGATNFSLLKQAGDVEENPGPMWGVFLLYVSMKMGGTTGQNIDQPTEMTATEGAIVQINCTYQTSGFNGLFWYQQHAGEAPTFLSYNVLDGLEEKGRFSSFLSRSKGYSYLLLKELQMKDSASYLCASVDGNNRLAFGKGNQVVVIPNIQNPEPAVYQLKDPRSQDSTLCLFTDFDSQINVPKTMESGTFITDKCVLDMKAMDSKSNGAIAWSNQTSFTCQDIFKETNATYPSSDVPCDATLTEKSFETDMNLNFQNLLVIVLRILLLKVAGFNLLMTLRLWSS
# modifications: CER31_T2A_HPV16_E7_TCR tandem cassette
# System: SCC152 cells
# Test: Phagocytic activity of tandem expression cassette transduced CD8+ T cells
# Assay type: cell-based, human
# Procedure: Phagocytic activity of tandem expression cassette transduced CD8+ T cells was detected by co-culturing tandem expression cassette transduced CD8+ T cells with SCC152 cells for 6 hours at a 1:1 ratio. Phagocytic events were visualized and quantified using KEYENCE BZ-X710 fluorescence microscope, 20X objective and hybrid capture software.
molecule,measurement,setting,value
B1,phagocytosis of SCC152 cells,"CD8+ T cells, 6 hours, 1:1 ratio",capable of phagocytosing SCC152 cells
same,dependence of engulfment of SCC152 cells on Racl,"Racl inhibitor NSC23766 (50 μM), data not shown",Racl-dependent manner
